Laboratory results as given in patent publication US20230406951A1 (Pfizer, published 2023).
Substitutions are numbered along the chain they refer to.

T1: human TNFR2 (human, UniProt P20333 23-461)
T1 construct: expressed on the surface of CHO cells; also called HuTNFR2; TNFRSF1B
T1 sequence: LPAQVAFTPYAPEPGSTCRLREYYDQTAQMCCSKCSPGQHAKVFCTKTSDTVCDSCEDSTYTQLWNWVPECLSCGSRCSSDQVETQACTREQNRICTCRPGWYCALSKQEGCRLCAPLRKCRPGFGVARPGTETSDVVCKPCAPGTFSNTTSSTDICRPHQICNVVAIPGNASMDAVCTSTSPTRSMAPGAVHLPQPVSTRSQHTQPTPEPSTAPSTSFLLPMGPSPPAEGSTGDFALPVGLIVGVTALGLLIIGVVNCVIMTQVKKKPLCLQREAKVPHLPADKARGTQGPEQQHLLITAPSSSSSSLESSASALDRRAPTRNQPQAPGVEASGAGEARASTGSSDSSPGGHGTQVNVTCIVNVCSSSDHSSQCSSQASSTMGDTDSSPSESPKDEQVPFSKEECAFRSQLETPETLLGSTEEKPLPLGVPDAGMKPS

B1: TetraFab 2076 (antibody)
heavy: QVQLVQSGAEVKKPGASVKVSCKVSGFSFPSSGVDWVRQAPGQGLEWLGVTLGHGSTHYNQKFQGRVTITKDTSKSTVYMELSSLRSEDTAVYYCASGEHDEGFVYWGQGTLVTVSSASTKGPSVFPLAPSSKSTSGGTAALGCLVKDYFPEPVTVSWNSGALTSGVHTFPAVLQSSGLYSLSSVVTVPSSSLGTQTYICNVNHKPSNTKVDKKVEPKSCGGGGSQVQLVQSGAEVKKPGASVKVSCKVSGFSFPSSGVDWVRQAPGQGLEWLGVTLGHGSTHYNQKFQGRVTITKDTSKSTVYMELSSLRSEDTAVYYCASGEHDEGFVYWGQGTLVTVSSASTKGPSVFPLAPSSKSTSGGTAALGCLVKDYFPEPVTVSWNSGALTSGVHTFPAVLQSSGLYSLSSVVTVPSSSLGTQTYICNVNHKPSNTKVDKKVEPKSCDKTHTCPPCPAPEAAGAPSVFLFPPKPKDTLMISRTPEVTCVVVDVSHEDPEVKFNWYVDGVEVHNAKTKPREEQYNSTYRVVSVLTVLHQDWLNGKEYKCKVSNKALPAPIEKTISKAKGQPREPQVYTLPPSREEMTKNQVSLTCLVKGFYPSDIAVEWESNGQPENNYKTTPPVLDSDGSFFLYSKLTVDKSRWQQGNVFSCSVMHEALHNHYTQKSLSLSPGK
light: DIQLTQSPSFLSASVGDRVTITCKASQNVGTAVAWYQQKPGKAPKLLIYAASTLQSGVPSRFSGSGSGTEFTLTISSLQPEDFATYYCQQYSSYPLTFGGGTKVEIKRTVAAPSVFIFPPSDEQLKSGTASVVCLLNNFYPREAKVQWKVDNALQSGNSQESVTEQDSKDSTYSLSSTLTLSKADYEKHKVYACEVTHQGLSSPVTKSFNRGEC
notes: TetraFab
B2: TetraFab 2154 (antibody)
heavy: B1 heavy with L52R, H54E, H100S, D101T, L277R, H279E, H325S, D326T
light: B1 light with Q89L, Y91K
notes: TetraFab
B3: TetraFab 2172 (antibody)
heavy: B1 heavy with L52F, G53Q, H54E, H100W, L277F, G278Q, H279E, H325W
light: B1 light with Q89L
notes: TetraFab
B4: TetraFab 2179 (antibody)
heavy: B1 heavy with L52K, H54Q, H100S, D101T, L277K, H279Q, H325S, D326T
light: B1 light with Q89L
notes: TetraFab
B5: TetraFab 2176 (antibody)
heavy: B1 heavy with L52W, H54V, L277W, H279V
light: B1 light with Q89L
notes: TetraFab
B6: TetraFab 2182 (antibody)
heavy: B1 heavy with L52K, H54Q, H100Q, L277K, H279Q, H325Q
light: B1 light with Q89L
notes: TetraFab
B7: TetraFab 2185 (antibody)
heavy: B1 heavy with L52R, H54E, H100R, L277R, H279E, H325R
light: B1 light with Q89L
notes: TetraFab
B8: TetraFab 2079 (antibody)
heavy: B1 heavy with L52H, H54S, H100S, D101T, L277H, H279S, H325S, D326T
light: B1 light
notes: TetraFab
B9: TetraFab 2174 (antibody)
heavy: B1 heavy with L52H, H54S, H100W, L277H, H279S, H325W
light: B1 light with Q89L
notes: TetraFab
B10: TetraFab 2191 (antibody)
heavy: B1 heavy with H100S, D101T, H325S, D326T
light: B1 light with Q89L
notes: TetraFab
B11: TetraFab 2167 (antibody)
heavy: B1 heavy with L52H, H54S, L277H, H279S
light: B1 light with Q89L, Y91K
notes: TetraFab
B12: TetraFab 2192 (antibody)
heavy: B1 heavy
light: B1 light with Q89L
notes: TetraFab
B13: TetraFab 2142 (antibody)
heavy: B1 heavy with L52R, H54E, H100W, L277R, H279E, H325W
light: B1 light with Q89L, Y91K
notes: TetraFab
B14: TetraFab 2175 (antibody)
heavy: B1 heavy with L52W, H54V, H100S, D101T, L277W, H279V, H325S, D326T
light: B1 light with Q89L
notes: TetraFab
B15: TetraFab 2147 (antibody)
heavy: B1 heavy with L52W, H54V, L277W, H279V
light: B1 light with Q89L, Y91K
notes: TetraFab
B16: TetraFab 2143 (antibody)
heavy: B1 heavy with L52F, G53Q, H54E, H100W, L277F, G278Q, H279E, H325W
light: B1 light with Q89L, Y91K
notes: TetraFab
B17: TetraFab 2173 (antibody)
heavy: B1 heavy with H100W, H325W
light: B1 light with Q89L
notes: TetraFab
B18: TetraFab 2156 (antibody)
heavy: B1 heavy with L52R, H54E, H100R, L277R, H279E, H325R
light: B1 light with Q89L, Y91K
notes: TetraFab
B19: TetraFab 2163 (antibody)
heavy: B1 heavy
light: B1 light with Q89L, Y91K
notes: TetraFab
B20: TetraFab 2153 (antibody)
heavy: B1 heavy with L52K, H54Q, H100Q, L277K, H279Q, H325Q
light: B1 light with Q89L, Y91K
notes: TetraFab
B21: TetraFab 2150 (antibody)
heavy: B1 heavy with L52K, H54Q, H100S, D101T, L277K, H279Q, H325S, D326T
light: B1 light with Q89L, Y91K
notes: TetraFab
B22: TetraFab 2162 (antibody)
heavy: B1 heavy with H100S, D101T, H325S, D326T
light: B1 light with Q89L, Y91K
notes: TetraFab
B23: IgG 1918 (antibody, name in Kabat numbering, V domains shown)
VH: QVQLVQSGAEVKKPGASVKVSCKVSGFSFPSSGVDWVRQAPGQGLEWLGVTRGEGSTHYNQKFQGRVTITKDTSKSTVYMELSSLRSEDTAVYYCASGEWDEGFVYWGQGTLVTVSS
VL: DIQLTQSPSFLSASVGDRVTITCKASQNVGTAVAWYQQKPGKAPKLLIYAASTLQSGVPSRFSGSGSGTEFTLTISSLQPEDFATYYCQQYNSYPFGGGTKVEIKR
notes: IgG
B24: IgG 1933 (antibody, name in Kabat numbering, V domains shown)
VH: B23 VH with R52W, E54V, W100R
VL: B23 VL with N92Y, Y94T
notes: IgG
B25: IgG 1973 (antibody, name in Kabat numbering, V domains shown)
VH: B23 VH with R52K, E54Q, W100S, D101T
VL: B23 VL
notes: IgG
B26: IgG 1977 (antibody, name in Kabat numbering, V domains shown)
VH: B23 VH with W100S, D101T
VL: B23 VL
notes: IgG
B27: IgG 1922 (antibody, name in Kabat numbering, V domains shown)
VH: B23 VH with R52W, E54V, W100S, D101T
VL: B23 VL
notes: IgG
B28: IgG 1978 (antibody, name in Kabat numbering, V domains shown)
VH: B23 VH with W100H
VL: B23 VL
notes: IgG
B29: IgG 1934 (antibody, name in Kabat numbering, V domains shown)
VH: B23 VH with R52W, E54V, W100Q
VL: B23 VL with N92Y, Y94T
notes: IgG
B30: IgG 1921 (antibody, name in Kabat numbering, V domains shown)
VH: B23 VH with R52H, E54S
VL: B23 VL
notes: IgG
B31: IgG 1927 (antibody, name in Kabat numbering, V domains shown)
VH: B23 VH
VL: B23 VL with N92Y, Y94T
notes: IgG
B32: IgG 1926 (antibody, name in Kabat numbering, V domains shown)
VH: B23 VH with R52K, E54Q
VL: B23 VL with N92Y, Y94T
notes: IgG
B33: IgG 1931 (antibody, name in Kabat numbering, V domains shown)
VH: B23 VH with R52W, E54V, W100S, D101T
VL: B23 VL with N92Y, Y94T
notes: IgG
B34: IgG 1932 (antibody, name in Kabat numbering, V domains shown)
VH: B23 VH with R52W, E54V, W100H
VL: B23 VL with N92Y, Y94T
notes: IgG
B35: IgG 1979 (antibody, name in Kabat numbering, V domains shown)
VH: B23 VH with W100R
VL: B23 VL
notes: IgG
B36: IgG 1924 (antibody, name in Kabat numbering, V domains shown)
VH: B23 VH with R52W, E54V, W100R
VL: B23 VL
notes: IgG
B37: IgG 1925 (antibody, name in Kabat numbering, V domains shown)
VH: B23 VH with R52W, E54V, W100Q
VL: B23 VL
notes: IgG

Biological target: T1, human TNFR2
Experiment: binding to human TNFR2 CHO cells

| binding result | Binder |
| --- | --- |
| no binding | B1 |
| no binding | B2 |
| no binding | B3 |
| no binding | B4 |
| no binding | B5 |
| no binding | B6 |
| no binding | B7 |
| no binding | B8 |
| no binding | B9 |
| no binding | B10 |
| no binding | B11 |
| no binding | B12 |
| no binding | B13 |
| no binding | B14 |
| no binding | B15 |
| no binding | B16 |
| no binding | B17 |
| no binding | B18 |
| no binding | B19 |

| binding result | Binder |
| --- | --- |
| no binding | B20 |
| no binding | B21 |
| no binding | B22 |
| no binding | B23 |
| no binding | B24 |
| no binding | B25 |
| no binding | B26 |
| no binding | B27 |
| no binding | B28 |
| no binding | B29 |
| no binding | B30 |
| no binding | B31 |
| no binding | B32 |
| no binding | B33 |
| no binding | B34 |
| no binding | B35 |
| no binding | B36 |
| no binding | B37 |
